Experimental data: US20240391977A1

Target: human TPOR (thrombopoietin receptor, c-Mpl) expressed on BaF3/c-Mpl cells (human) (UniProt P40238)
Assay: cell-based or functional assay

Substance: Romiplostim (Nplate®) (Fc fusion)
- EC50 (ng/ml), growth of BaF3/c-Mpl cells by CCK-8 assay; Nplate®: 8.78 ng/mL
